Data published in IntAct's records for PubMed 31552791.

B1: Ras-related protein Rab-38 (Homo sapiens), P57729 (parent)
chain: MQAPHKEHLYKLLVIGDLGVGKTSIIKRYVHQNFSSHYRATIGVDFALKVLHWDPETVVRLQLWDIAGQERFGNMTRVYYREAMGAFIVFDVTRPATFEAVAKWKNDLDSKLSLPNGKPVSVVLLANKCDQGKDVLMNNGLKMDQFCKEHGFVGWFETSAKENINIDEASRCLVKHILANECDLMESIEPDVVKPHLTSTKVASCSGCAKS

Variants of: B1
Conditions: with lrrk2_human LRRK2, Q5S007
Chain of lrrk2_human LRRK2, Q5S007 (Q5S007 whole entry): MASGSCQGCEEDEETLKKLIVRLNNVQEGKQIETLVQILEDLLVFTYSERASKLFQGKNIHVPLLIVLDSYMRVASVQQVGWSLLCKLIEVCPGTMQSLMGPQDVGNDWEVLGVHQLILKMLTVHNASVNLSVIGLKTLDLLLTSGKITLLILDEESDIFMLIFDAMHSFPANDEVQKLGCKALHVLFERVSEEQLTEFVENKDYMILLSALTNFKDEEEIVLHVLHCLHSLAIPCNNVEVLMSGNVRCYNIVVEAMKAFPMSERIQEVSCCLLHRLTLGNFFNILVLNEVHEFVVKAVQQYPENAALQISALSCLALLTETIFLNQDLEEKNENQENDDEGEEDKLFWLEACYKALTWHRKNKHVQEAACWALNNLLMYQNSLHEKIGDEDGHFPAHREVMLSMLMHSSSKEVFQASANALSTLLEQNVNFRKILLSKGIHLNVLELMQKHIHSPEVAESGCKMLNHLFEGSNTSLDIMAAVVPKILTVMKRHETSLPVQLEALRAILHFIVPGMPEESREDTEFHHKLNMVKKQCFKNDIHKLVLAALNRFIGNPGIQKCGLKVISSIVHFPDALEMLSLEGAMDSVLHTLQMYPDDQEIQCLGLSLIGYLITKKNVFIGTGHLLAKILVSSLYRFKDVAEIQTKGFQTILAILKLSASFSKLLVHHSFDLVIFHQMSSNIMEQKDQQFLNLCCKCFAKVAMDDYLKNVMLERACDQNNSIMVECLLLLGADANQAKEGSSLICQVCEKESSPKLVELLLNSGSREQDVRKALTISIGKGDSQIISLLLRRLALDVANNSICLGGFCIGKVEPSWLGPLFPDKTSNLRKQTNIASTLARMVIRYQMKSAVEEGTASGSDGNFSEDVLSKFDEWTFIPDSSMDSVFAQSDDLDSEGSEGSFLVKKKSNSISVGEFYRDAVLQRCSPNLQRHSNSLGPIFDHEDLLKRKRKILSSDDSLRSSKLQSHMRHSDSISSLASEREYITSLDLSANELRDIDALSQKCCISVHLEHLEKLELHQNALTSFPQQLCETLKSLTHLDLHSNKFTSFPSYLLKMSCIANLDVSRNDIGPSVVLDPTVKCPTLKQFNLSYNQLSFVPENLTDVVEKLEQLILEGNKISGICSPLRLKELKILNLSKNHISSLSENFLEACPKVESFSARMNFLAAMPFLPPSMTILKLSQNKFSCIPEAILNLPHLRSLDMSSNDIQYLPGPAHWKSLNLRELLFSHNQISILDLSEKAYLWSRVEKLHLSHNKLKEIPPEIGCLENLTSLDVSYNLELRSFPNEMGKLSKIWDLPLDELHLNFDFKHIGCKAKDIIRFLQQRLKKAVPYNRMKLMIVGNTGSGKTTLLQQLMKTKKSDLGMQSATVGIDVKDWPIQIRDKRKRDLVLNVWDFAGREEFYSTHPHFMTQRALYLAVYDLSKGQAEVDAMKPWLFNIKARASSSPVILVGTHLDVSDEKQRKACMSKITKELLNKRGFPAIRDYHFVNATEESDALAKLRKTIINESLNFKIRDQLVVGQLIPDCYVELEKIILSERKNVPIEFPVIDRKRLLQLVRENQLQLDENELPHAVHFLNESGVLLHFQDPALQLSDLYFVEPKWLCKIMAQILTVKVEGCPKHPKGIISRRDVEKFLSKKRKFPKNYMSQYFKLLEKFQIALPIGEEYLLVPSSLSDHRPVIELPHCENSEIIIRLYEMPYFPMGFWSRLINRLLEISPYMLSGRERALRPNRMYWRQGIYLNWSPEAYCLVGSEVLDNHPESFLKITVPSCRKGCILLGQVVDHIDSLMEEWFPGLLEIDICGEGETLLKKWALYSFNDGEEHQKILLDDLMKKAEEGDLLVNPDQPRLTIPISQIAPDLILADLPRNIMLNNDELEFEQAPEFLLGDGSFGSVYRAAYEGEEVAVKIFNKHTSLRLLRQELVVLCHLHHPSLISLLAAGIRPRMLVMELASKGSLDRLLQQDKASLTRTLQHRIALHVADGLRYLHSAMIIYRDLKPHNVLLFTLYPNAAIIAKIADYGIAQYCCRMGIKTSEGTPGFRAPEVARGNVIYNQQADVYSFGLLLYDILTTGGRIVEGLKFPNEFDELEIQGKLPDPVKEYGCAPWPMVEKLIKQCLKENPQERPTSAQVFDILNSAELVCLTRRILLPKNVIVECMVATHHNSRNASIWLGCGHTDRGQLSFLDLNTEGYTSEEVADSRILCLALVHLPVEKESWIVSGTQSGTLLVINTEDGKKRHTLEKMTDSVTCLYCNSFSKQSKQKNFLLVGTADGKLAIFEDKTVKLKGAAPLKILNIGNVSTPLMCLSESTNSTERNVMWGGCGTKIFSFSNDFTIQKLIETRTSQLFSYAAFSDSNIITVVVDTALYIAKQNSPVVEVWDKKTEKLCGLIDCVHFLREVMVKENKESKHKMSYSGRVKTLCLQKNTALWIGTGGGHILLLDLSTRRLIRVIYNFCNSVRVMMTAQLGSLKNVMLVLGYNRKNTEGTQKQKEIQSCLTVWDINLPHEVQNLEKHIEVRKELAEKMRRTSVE

Variant	effect of a mutation on the interaction
R39Q	decreasing interaction strength
I42A	with no effect

More lines, now with the values ahead:

effect of a mutation on the interaction	Variant
with no effect	I42E
with no effect	R77Q;R81Q
